Patent publication CN104774268A

Tests used:
[1] = target: CD3 on CD3-positive Jurkat cells (human); test: flow cytometry on Jurkat cells, MFI titration fitted in GraphPad Prism
[2] = target: EGFR on EGFR-positive cells (HT29; HCT116; MDA-MB-453) (human) (UniProt P00533); test: flow cytometry on HT29 cells, MFI titration fitted in GraphPad Prism

Substance	Kd [1]	Kd [2]
EGFR×CD3 MSBODY M1003 (monovalent unit from Vectibix, single-chain unit anti-CD3 L2K ScFv-Fc) (bispecific antibody)	14.4 nM	0.65 nM
EGFR×CD3 MSBODY M1001 (monovalent unit from Erbitux, single-chain unit anti-CD3 L2K ScFv-Fc) (bispecific antibody)	8.73 nM	0.65 nM
